B1: SEQID-00638: protein of the 168 nutritive polypeptide library (protein)
chain: MKTNELVQRVAEKAKLPKKRVRAILDLAFSAISEEIESGQPVVVRGLGKFTLKEQPARTKTNPETGETTEVPARTVVNFRVIKPSKDKEEADS
modifications: Arthrospira platensis NIES-39
notes: protein of the 168 nutritive polypeptide library
B2: SEQID-00645: protein of the 168 nutritive polypeptide library (protein, listed as Saccharomyces cerevisiae)
chain: MAYTSHLSSKTGLHFGRLSLRSLTAYAPNLMLWGGASMLGLFVFTEGWPKFQDTLYKKIPLLGPTLEDHTPPEDKPN
modifications: source: /note="strain ATCC 204508 / S288c"
notes: as for B1
B3: SEQID-00641: protein of the 168 nutritive polypeptide library (protein, listed as Saccharomyces cerevisiae)
chain: MLPRSALARSLQLQRGVAARFYSEGSTGTPRGSGSEDSFVKRERATEDFFVRQREKEQLRHLKEQLEKQRKKIDSLENKIDSMTK
modifications: source: /note="strain ATCC 204508 / S288c"
notes: as for B1
B4: SEQID-00633: protein of the 168 nutritive polypeptide library (protein, listed as Saccharomyces cerevisiae)
chain: MSDAGRKGFGEKASEALKPDSQKSYAEQGKEYITDKADKVAGKVQPEDNKGVFQGVHDSAEKGKDNAEGQGESLADQARDYMGAAKSKLNDAVEYVSGRVHGEEDPTKK
modifications: source: /note="strain ATCC 204508 / S288c"
notes: as for B1
B5: SEQID-00634: protein of the 168 nutritive polypeptide library (protein, listed as Saccharomyces cerevisiae)
chain: MPPKQQLSKAAKAAAALAGGKKSKKKWSKKSMKDRAQHAVILDQEKYDRILKEVPTYRYVSVSVLVDRLKIGGSLARIALRHLEKEGIIKPISKHSKQAIYTRATASE
modifications: source: /note="strain ATCC 204508 / S288c"
notes: as for B1
B6: SEQID-00642: protein of the 168 nutritive polypeptide library (protein, listed as Saccharomyces cerevisiae)
chain: MADQENSPLHTVGFDARFPQQNQTKHCWQSYVDYHKCVNMKGEDFAPCKVFWKTYNALCPLDWIEKWDDQREKGIFAGDINSD
modifications: source: /note="strain ATCC 204508 / S288c"
notes: as for B1
B7: SEQID-00648: protein of the 168 nutritive polypeptide library (protein)
chain: MKRVHLPTDRETGKFRGFAFVEMNTEEEEIHAIEELDGAEWMGREIRVNLARPREDKKPSDRGGRKPRY
modifications: Arthrospira platensis C1
notes: as for B1
B8: SEQID-00632: protein of the 168 nutritive polypeptide library (protein, listed as Saccharomyces cerevisiae)
chain: MSTVTKYFYKGENTDLIVFAASEELVDEYLKNPSIGKLSEVVELFEVFTPQDGRGAEGELGAASKAQVENEFGKGKKIEEVIDLILRNGKPNSTTSSLKTKGGNAGTKAYN
modifications: source: /note="strain ATCC 204508 / S288c"
notes: as for B1
B9: SEQID-00643: protein of the 168 nutritive polypeptide library (protein, listed as Linum usitatissimum)
chain: MVGCGRIGKLLLQRLKPFGCNLLYHDRLKMEPELETQIGAKFEEDVDAMLPKCDVVVINTPLTEKTKGMFDKDRILKMKKG
B10: SEQID-00236: nutritive polypeptide (protein, listed as Bos taurus)
chain: ALQEAHQQTLDDLQAEEDKVNTLTKAKTKLEQQVDDLEGSLEQEKKLRMDLERAKRKLEGDLKLA

Assay: SGF digest of 168 nutritive polypeptide library, intact protein by LC-MS/MS
Type: in vitro ADME
Conditions: 168 nutritive polypeptide library SGF digest, LC-MS/MS spectral counts
In short: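 Spectral-count ratios (10 min vs 0 min, peak gel fraction plus neighbours) give the percent of each protein left intact after SGF digestion of a pooled, IMAC-purified 168-member recombinant library. Samples were gel-fractionated, trypsinised in-gel and run on Orbitrap nanoLC-MS/MS, requiring two unique peptides at 1% FDR.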

Molecule	% Intact Protein at 10 min [%]
B1	0
B2	0
B3	21.2
B4	92.1
B5	36.8
B6	75
B7	39.5
B8	1.2
B9	13.6

Assay: Intact half-life during simulated gastric fluid (SGF) digestion
Conditions: SGF pH 1.5, pepsin:polypeptide 1:20 w/w, 37° C.; intact protein

Molecule	SGF Half-life (t½) [min]
B10	10
